Results reported in patent US20170081400A1 (CEPHALON, published 2017).
Values belong to the binder of their own block, whether it stands above or below them.

What was measured:
[1] = molecular target: T1, human TL1A extracellular domain with N-terminal HIS and FLAG tag (human, UniProt O95150 72-251); test: KinExA, 320-587 as CBP, free 320-587 captured on TL1A-coated Sepharose beads; repeat 2
T1 construct: whole entry named. ~70 kDa fraction purified by gel filtration
T1 sequence: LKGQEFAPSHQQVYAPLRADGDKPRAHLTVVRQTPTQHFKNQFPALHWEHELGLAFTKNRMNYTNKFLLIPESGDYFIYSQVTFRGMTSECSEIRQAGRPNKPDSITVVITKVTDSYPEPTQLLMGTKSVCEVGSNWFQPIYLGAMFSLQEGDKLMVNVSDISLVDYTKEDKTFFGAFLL

[2] = molecular target: T1, human TL1A extracellular domain with …; test: KinExA, TL1A as CBP, free TL1A captured on 320-587-coated PMMA beads; repeat 2
[3] = molecular target: T1, human TL1A extracellular domain with …; test: KinExA, TL1A as CBP, free TL1A captured on 320-587-coated PMMA beads; repeat 1
[4] = molecular target: T1, human TL1A extracellular domain with …; test: KinExA, TL1A as CBP, free TL1A captured on 320-587-coated PMMA beads; average of two
[5] = molecular target: T1, human TL1A extracellular domain with …; test: KinExA, 320-587 as CBP, free 320-587 captured on TL1A-coated Sepharose beads; repeat 1
rat TL1A = molecular target: T2, rat TL1A (rat, UniProt Q8K3Y7 73-252); test: SPR: 320-587 captured on Protein A, TL1A of the species flowed over
T2 construct: recombinantly produced; whole entry named
T2 sequence: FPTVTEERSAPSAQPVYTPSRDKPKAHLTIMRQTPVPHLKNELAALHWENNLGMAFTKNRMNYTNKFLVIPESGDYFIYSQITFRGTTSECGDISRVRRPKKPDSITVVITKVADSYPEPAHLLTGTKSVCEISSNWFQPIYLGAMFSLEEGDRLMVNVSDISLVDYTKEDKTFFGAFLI

guinea pig TL1A = molecular target: T3, guinea pig TL1A (guinea pig); test: as above
T3 construct: recombinantly produced; whole entry named
T3 chain: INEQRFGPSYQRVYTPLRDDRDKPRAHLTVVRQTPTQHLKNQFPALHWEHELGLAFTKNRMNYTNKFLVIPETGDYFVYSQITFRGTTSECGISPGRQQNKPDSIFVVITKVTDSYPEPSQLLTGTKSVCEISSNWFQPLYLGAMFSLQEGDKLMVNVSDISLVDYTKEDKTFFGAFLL

cynomolgus monkey TL1A = molecular target: T4, cynomolgus monkey TL1A (cynomolgus monkey, UniProt O95150 72-251 (human entry), limits assumed); test: as above
T4 construct: recombinantly produced; whole entry named
T4 chain: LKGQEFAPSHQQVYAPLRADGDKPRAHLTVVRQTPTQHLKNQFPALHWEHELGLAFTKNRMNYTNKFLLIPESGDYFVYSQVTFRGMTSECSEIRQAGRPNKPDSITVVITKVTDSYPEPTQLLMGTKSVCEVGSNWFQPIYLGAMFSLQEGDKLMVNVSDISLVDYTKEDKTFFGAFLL

dog TL1A = molecular target: T5, dog TL1A (dog); test: as above
T5 construct: recombinantly produced; whole entry named
T5 chain: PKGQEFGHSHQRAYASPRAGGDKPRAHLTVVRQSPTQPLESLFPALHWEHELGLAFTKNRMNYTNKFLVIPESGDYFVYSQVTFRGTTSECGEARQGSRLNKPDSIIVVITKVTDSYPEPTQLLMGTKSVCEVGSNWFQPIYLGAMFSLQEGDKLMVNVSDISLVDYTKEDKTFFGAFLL

cat TL1A = molecular target: T6, cat TL1A (cat); test: as above
T6 construct: recombinantly produced; whole entry named
T6 chain: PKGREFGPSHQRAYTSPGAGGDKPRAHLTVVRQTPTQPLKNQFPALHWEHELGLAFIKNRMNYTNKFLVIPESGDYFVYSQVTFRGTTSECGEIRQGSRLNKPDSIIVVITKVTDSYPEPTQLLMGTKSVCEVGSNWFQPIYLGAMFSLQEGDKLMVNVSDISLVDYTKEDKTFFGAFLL

mouse TL1A = molecular target: T7, mouse TL1A (mouse, UniProt Q5UBV8 73-252); test: as above
T7 construct: recombinantly produced; whole entry named
T7 sequence: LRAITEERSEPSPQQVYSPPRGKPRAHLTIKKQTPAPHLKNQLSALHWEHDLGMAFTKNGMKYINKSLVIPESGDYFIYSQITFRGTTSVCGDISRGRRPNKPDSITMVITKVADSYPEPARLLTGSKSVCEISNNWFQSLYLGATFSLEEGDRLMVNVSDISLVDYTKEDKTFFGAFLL

rabbit TL1A = molecular target: T8, rabbit TL1A (rabbit); test: as above
T8 construct: recombinantly produced; whole entry named
T8 chain: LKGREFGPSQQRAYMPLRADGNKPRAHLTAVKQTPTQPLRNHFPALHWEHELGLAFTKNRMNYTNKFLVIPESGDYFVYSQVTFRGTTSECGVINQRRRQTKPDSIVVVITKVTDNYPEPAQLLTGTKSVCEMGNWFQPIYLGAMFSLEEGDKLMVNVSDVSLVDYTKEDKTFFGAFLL

[6] = molecular target: T1, human TL1A extracellular domain with …; test: KinExA, 320-587 as CBP, free 320-587 captured on TL1A-coated Sepharose beads; average of two
[7] = molecular target: T9, single-site biotinylated human TL1A (human, UniProt O95150 72-251, single-site biotinylated (site not stated)); test: competition ELISA: antibody dilutions pre-incubated with biotinylated human TL1A (1 µg/ml), added to plate-coated DcR3/Fc; bound TL1A detected with streptavidin-HRP; blocked partner DcR3/Fc [bottom panel]
T9 construct: construct used for biotinylation not described
T9 sequence: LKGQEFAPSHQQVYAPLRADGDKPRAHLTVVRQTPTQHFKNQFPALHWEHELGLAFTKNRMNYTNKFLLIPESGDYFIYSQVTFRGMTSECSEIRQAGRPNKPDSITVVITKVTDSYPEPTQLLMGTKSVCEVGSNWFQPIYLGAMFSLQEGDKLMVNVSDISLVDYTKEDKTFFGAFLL
Method: 1.8. […] DR3/Fc Chimera (R&D Systems) or DcR3/Fc Chimera (R&D Systems) was coated onto a 96-well plate (Maxisorp, Nunc) at a concentration of 2 μg/ml.

[8] = molecular target: T10, human TL1A extracellular domain with N-terminal HIS and FLAG tag (human) (UniProt O95150); test: SPR Run 6, purified Ab captured on Protein A, TL1A 5 ug/mL, timepoint 44
T10 sequence: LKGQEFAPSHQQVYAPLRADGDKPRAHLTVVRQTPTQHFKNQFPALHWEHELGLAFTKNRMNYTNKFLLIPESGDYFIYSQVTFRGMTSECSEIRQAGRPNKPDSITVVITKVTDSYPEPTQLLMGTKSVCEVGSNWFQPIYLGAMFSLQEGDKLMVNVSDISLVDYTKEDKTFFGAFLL

[9] = molecular target: T10, human TL1A extracellular domain with N-terminal HIS and FLAG tag (human); test: SPR Run 6, purified Ab captured on Protein A, TL1A 5 ug/mL, timepoint 170
[10] = molecular target: T11, human TL1A extracellular domain with N-terminal HIS and FLAG tag (human, UniProt O95150 72-251); test: KinExA, Sepharose beads coated with TL1A, 320-587 as the CBP, assay 1
T11 construct: the whole entry is named; also called TNFSF15
T11 sequence: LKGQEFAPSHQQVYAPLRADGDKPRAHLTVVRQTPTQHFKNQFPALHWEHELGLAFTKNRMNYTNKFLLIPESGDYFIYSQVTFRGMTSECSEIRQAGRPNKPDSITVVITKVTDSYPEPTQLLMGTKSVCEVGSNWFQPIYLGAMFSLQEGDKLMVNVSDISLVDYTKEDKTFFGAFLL

[11] = molecular target: T11, human TL1A extracellular domain with …; test: KinExA, PMMA beads coated with 320-587, TL1A as the CBP, average of 3 assays (SD 13.5)
Method: (§1) Using the time to reach equilibrium determined above, all curves were allowed to come to equilibrium in a 25° C. incubator for 3 days.

[12] = molecular target: T11, human TL1A extracellular domain with …; test: KinExA, Sepharose beads coated with TL1A, 320-587 as the CBP, assay 3
[13] = molecular target: T11, human TL1A extracellular domain with …; test: KinExA, Sepharose beads coated with TL1A, 320-587 as the CBP, assay 5
[14] = molecular target: T11, human TL1A extracellular domain with …; test: KinExA, PMMA beads coated with 320-587, TL1A as the CBP, assay 1
Method: as §1

[15] = molecular target: T11, human TL1A extracellular domain with …; test: KinExA, Sepharose beads coated with TL1A, 320-587 as the CBP, assay 4
[16] = molecular target: T11, human TL1A extracellular domain with …; test: SPR Run 8, antibody on Protein A, TL1A 5 ug/mL, timepoint 44
Description: (§2) 1.5. Antibody expression and antigen binding as determined by SPR. Using a CM5 sensor chip (GE Healthcare) Protein A (Pierce) was coupled to the chip surface using an amine coupling kit (GE Healthcare). Protein A was coupled on flow cell 1 and 2 (or alternatively 3 and 4) using a BIACORE® T200. […] The amount of supernatant or purified protein (as well as the concentration) injected during the capture stage varied between runs and is specified in the header of the Tables 3-11. At the end of injection of the supernatant or purified antibody the change in response units was measured. This value was reported as Capture Level in Tables 3-11. […] The response units were measured prior to the end of the dissociation phase. […] The sensorgrams were double referenced (flow cell 2 is subtracted from flow cell 1 and a buffer blank). As there were a large number of antibody variants to screen, these were screened across different runs (Tables 3-11). […] A summary of the conditions used in each run is below:
(§3) 2.1. […] In some experiment the antibodies were purified using Protein A chromatography (See 1.4) and purified antibodies were used in BIACORE® (GE Healthcare) experiments.

[17] = molecular target: T11, human TL1A extracellular domain with …; test: KinExA, PMMA beads coated with 320-587, TL1A as the CBP, assay 3
Method: as §1

[18] = molecular target: T11, human TL1A extracellular domain with …; test: SPR Run 8, antibody on Protein A, TL1A 5 ug/mL, timepoint 590
Description: as §2, §3

[19] = molecular target: T11, human TL1A extracellular domain with …; test: cell-based or functional assay
[20] = molecular target: T11, human TL1A extracellular domain with …; test: KinExA, Sepharose beads coated with TL1A, 320-587 as the CBP, assay 2
[21] = molecular target: T11, human TL1A extracellular domain with …; test: KinExA, PMMA beads coated with 320-587, TL1A as the CBP, assay 2
Method: as §1

[22] = molecular target: T11, human TL1A extracellular domain with …; test: KinExA, Sepharose beads coated with TL1A, 320-587 as the CBP, average of 5 assays (SD 8.33)

- kon [1]: 745000 M⁻¹ s⁻¹
- kon [2]: 574000 M⁻¹ s⁻¹
- kon [3]: 611000 M⁻¹ s⁻¹
- kon [4]: 593000 M⁻¹ s⁻¹
- kon [5]: 835000 M⁻¹ s⁻¹
- binding result (rat TL1A): binds
- binding result (guinea pig TL1A): binds
- binding result (cynomolgus monkey TL1A): binds
- binding result (dog TL1A): binds
- binding result (cat TL1A): binds
- binding result (mouse TL1A): binds
- binding result (rabbit TL1A): binds
- kon [6]: 790000 M⁻¹ s⁻¹
- IC50 (read off the curve) [7]: ~1 µg/mL
B1: 320-587 (antibody, name in Kabat numbering, V domains shown)
VH: QVQLVQSGAEVKKPGASVKVSCKASGYTFTSYDINWVRQAPGQGLEWMGWLNPNSGYTGYAQKFQGRVTMTADRSTSTAYMELSSLRSEDTAVYYCAREVPETAAFEYWGQGTLVTVSS
VL: QSVLTQPPSVSGAPGQRVTISCTSSSSDIGAGLGVHWYQQLPGTAPKLLIEGYYNRPSGVPDRFSGSKSGTSASLTITGLLPEDEGDYYCQSWDGTLSALFGGGTKLTVLG
notes: human IgG1, lambda

- TL1A Binding Level (Early) [8]: 6 RU
- TL1A Binding Level (Late) [9]: 4 RU
B2: 320-457 (antibody, human IgG1, name in Kabat numbering, V domains shown)
VH: QVQLVQSGAEVKKPGASVKVSCKASGYTFTSYDDNWVRQAPGQGLEWMGWLNPNSGNTGYAQKFQGRVTMTADRSTSTAYMELSSLRSEDTAVYYCAREVPETAAFEYWGQGTLVTVSS
VL: QSVLTQPPSVSGAPGQRVTISCTSSSSDIGAGLGVHWYQQLPGTAPKLLIEGYYNRPSGVPDRFSGSKSGTSASLTITGLLPEDEGDYYCQSYDGTLSALFGGGTKLTVLG

- Kd [10]: 0.0404 nM
- Kd [11]: 0.0415 nM
- Kd [12]: 0.0463 nM
- Kd [13]: 0.0337 nM
- Kd [14]: 0.0334 nM
- Kd [15]: 0.0324 nM
- TL1A Binding Level (Early) [16]: 123 RU
- Kd [17]: 0.0341 nM
- TL1A Binding Level (Late) [18]: 122 RU
- Antibody IC50, TL1A induced caspase potency assay in TF-1 cells [19]: 0.001 µg/mL
- Fold improvement over 320-179, TL1A induced caspase potency assay in TF-1 cells [19]: 40 fold
- Kd [20]: 0.052 nM
- Kd [21]: 0.0571 nM
- Kd [22]: 0.041 nM
B3: 320-587 (antibody, name in Kabat numbering, V domains shown)
VH: QVQLVQSGAEVKKPGASVKVSCKASGYTFTSYDINWVRQAPGQGLEWMGWLNPNSGYTGYAQKFQGRVTMTADRSTSTAYMELSSLRSEDTAVYYCAREVPETAAFEYWGQGTLVTVSS
VL: QSVLTQPPSVSGAPGQRVTISCTSSSSDIGAGLGVHWYQQLPGTAPKLLIEGYYNRPSGVPDRFSGSKSGTSASLTITGLLPEDEGDYYCQSWDGTLSALFGGGTKLTVLG
notes: full-length human IgG1, lambda
